Results from patent publication US20230391886A1.

Biological target: MUC18 (target of JM1-24-3 as used in Bio-Layer Interferometry) (Homo sapiens (Human)) (UniProt P43121)
Assay: Bio-Layer Interferometry, Octet RED384

B1: JM1-24-3 (antibody, V domains shown)
VH: MSCKASGYAFTSYWMNWIKERPGQGLEWIGAIDPFNGYTEYNHKFKDKAILTADNSSSTVYMQLSSLTSEDSAVYYCARWGGRLYFDYWGQGTTLTVSS
VL: MTQSPSSMYASLGERVTITCKASQDINSFLSWFQQKPGKSPKTLIYRANRLVDGVPSRFSGSGSGQDYSLTISSLEYEDMGIYYCLQYDEFPYTFGGGTKLEIKR
B1 showed a Kd of 1.6 nM.
